Consider 19 variants from the RNAGym collection of RNA variant scans (doi:10.1073/pnas.2313332121).

Sequences and labels used below:
B1: TPR 5TU (parent)
chain: GGAUCUUCUCGAUCUAACAAAAAAGACAAAUCUGCCACAAAGCUUGAGAGCAUCUUCGGAUGCAGAGGCGGCAGCCUUCGGUGGCGCGAUAGCGCCAACGUUCUCAACUAUGACACGCAAAACGCGUGCUCCGUUGAAUGGAGUUUAUCAUG

Variants at the floor of the assay were thinned out.

Variants of B1 are the subject of the series. Briefly: polymerase ribozyme fitness, log enrichment relative to wild type (log ratio); higher = more active; in vitro selection for triplet polymerase activity. In outline:
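Fitness compares each genotype's enrichment to that of the wild type on a logarithmic scale, averaging replicates with inverse-variance weights. The logarithm is base 2. Enrichment came from Illumina sequencing of input and output libraries after one triplicate round of in vitro selection, which included frozen incubation at −7 °C, of PCR-built, transcribed mutant libraries of each subunit of a heterodimeric triplet polymerase ribozyme. Only genotypes with ≥10 input reads and ≥1 read per output were kept.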
In the case of GGAUUUUCUCGAUCUAACAAAAAAGACAAAUCUGCCACAAAGCUUGAGAGCAUCUUCGGAUGCAGAGGCGGCGGCCUUCGGUGGGGCGAUAGCGCCAACGUUCUCAACUAUGACACGCAAAACGCGUGCUCCGUUGAAUGGAGUUUAUCAUG [C5U A73G C85G], the “polymerase ribozyme fitness (log ratio)” value is -0.907.
As for GGAUUUUCUCGAUCUAACAAAAAAGACAAAUCUGCCACAAAGCUUGAGAGCAUCUUCGGAUGCAGAGGCGGCAGCCUUCGGUGGCGCGAUAGCGCCAACGUUCUUAACUAUGACACGCAAAACGCGUGCUCCGUUGAUUGGAGUUUAUCAUG [C5U C105U A138U], the figure is no more than -4.2; as for GGAUUUUCUCGAUCUAACAAAAGAGACAAAUAUGCCACAAAGCUUGAGAGCAUCUUGGAAUGCAGAGGCGGCAGCCUUCGGUGGCGGGAUAGCGACAACGUUCUCAACUAUGACACGCAAAACGCGUGCUCCGCUGAAUGGAGUUUAUCAUG [C5U A23G C32A C57G G59A C87G C95A U134C], no more than -4.2.
As for GGAUUUUCUCGAUCUAACAAAAAAGACAAAUCUGCCAUAAAGCUUGAGAGCAUUUUCGGAUGCAGAGGCGGCAGCCUUCGGUGGCGCGAUAGCUCCAACGUUCUCAACUAUGACUCGCGAAACGCGUGCUCCGUUUAAUGGAGUUUUUCAUG [C5U C38U C54U G94U A115U A119G G136U A147U], the figure is -3.8; as for GGAUGUUCUCGAUCUAACAAAAAAGACAAAUCUGCCACAAAGCUUGAGAGCAUCUUCGGAUGCAGAGGCGGCAGCCAUCGGUGGCGCGAUAGCUCCAACGUUCUCAACUAUGACACGCAAAACGCGUGCUCCGUUGAAUCGAGUUUAUCAUA [C5G U77A G94U G140C G152A], no more than -4.2.
Turning to GGAUGUUCUCGAUCUAACAAAAAAGACAAAUCUGCCACAAAGCUUGAGAGCAUCAUCGGAUGCAGAGGCCGCAGCCUUCGGUGGAGCGAUAGCGCUAACGUUCUCAACUAUGACACGCAAAACGCGUGCUCCGUUGAAUGGAGUUUAUCAGG [C5G U55A G70C C85A C96U U151G], the “polymerase ribozyme fitness (log ratio)” value is no more than -4.2.
The figure for GGAUUUUCUCGAUCUUACAAAAAAGACAAAUCUGCCACAAAGCUUGAGAGCAUCUUCGGAUGCAGAGGCGGCAGCCUUCGGUGGCGAGAUAGCGCCAACGUUCUCCACUAUGACACGCAAAACGCGUGCUCCGUUGAAUGGAGUUUAUCAUG [C5U A16U C87A A106C] is no more than -4.2; for GGAUUUUCUCGAUCUAACAAAAAAGACAAAUCUGCCAGAAAGCUUGAGAGCAUCUUUGGAUGCAGAGGCGGCAGCCUUCGGUGUCGCGAUAGCGCCAACGUUCUCCACUAUGACACGCAAAACGCGUGCUCCGUUGAAUGGAGUUUAUCAUG [C5U C38G C57U G84U A106C] it is -3; for GGAUUUUCUCGAUCUAACAAAAAAGACAAAUCUGCCAUAAAGCUUGAGAGCAUCUUCGGAUGCAGAGGCGGCAGCCUUCGGUGGGGCGAUAGCGCCAACGCUCUCAACUAUGACACGCAAAACGCGUGCUCCGUUGAAUGGAGUUUAUCAUG [C5U C38U C85G U101C] it is -1.38.
As for GGAUUUUCUCGAUCUAACAAAAAAGACAAAUCUGCCACAAAGCUUGAGAGCAUCUUCGGAUGCAGAGGCGGCAGCCUUCGGUGGCGCGAUAGCGCAAACGUUCUCAACUAUGACACGCAAAACGCGUGCUCCGUUGAAUGGAGUUUAUCAUG [C5U C96A], the figure is 0.48; as for GGAUUUUCUCGAUCUAACAAAAAAGACAAAUCUGCCAGAAAGCUUGAGAGCAUCUUCGGAUGCAGUGGCGGCAGCCUUCGGUGGCGCGAUAGCCCCAACGUUCUCAACUAUGACACGCAAAACGCGUGCUCCGUUGAAUGGAGUUUAUCAUG [C5U C38G A66U G94C], no more than -4.2.
As for GGAUGUUCUCGAUCUAACAAAAAAGACAAAUCUGCCACAAAGCUUGAGAGCAUCGUCGGAUGCAGAGGCGGCAGCCUUGGGUGGUGCGAUAGCGCCAACGUUCUCAACUAUGACACGCAAAACGCGUGCGCCGUUGAAUGGAGUUUAUCAUG [C5G U55G C79G C85U U130G], the figure is no more than -4.2; as for GGAUUUUCUCGAUCUAACAUAAAAGACAAAUCUGCCACAAAGCUUGAGAGCAUCUUUGGAUGCAGAGACGGUAGCCUUCGGUGGCGCGAUAACGCCAACGUUCUCAACUAUGACACGCAAAACGCGUGCUCCGUUGAAUGGAGUUUAUCAUG [C5U A20U C57U G68A C72U G92A], no more than -4.2.
On to GGAUUUUCUCGAUCUAAUAAAAAAGACAAAUCUGCCACAAAGCUUGAGAGCAUCUUCGGAUGCAGAGGCGGCAGCGUUCGGUGGCGCGAUAGCGCCAACGUUCUUAACUAUGACACGCAAAACGCGUGCUCCGUUGAAUGGAGUUUAACAUG [C5U C18U C76G C105U U148A], for which the “polymerase ribozyme fitness (log ratio)” value is no more than -4.2.
The figure for GGAUUUUCUCGAUCUAACACAAAAGACAAAUCUGCCACAAAGCUUGAGAGCAUCUUCGAGUGCAGAGGAGGCAGCCUUCGGUGGCGCGAUAGCGCCAGCGUUCUCAACUAUGACACGCAAAACGCGUGCUCCGUUGAAUGGAGUUUAUCAUG [C5U A20C G59A A60G C69A A98G] is -2.12.
GGAUUUUCUCGAUCUAACAAACAAGACAAAUCUGCCACAAAGCUUGAGAGCAUCUUCGGAUGCAGAGGCGGCAGCCUUCGGUCGCGCGAUAGUGCCAACGGUCUCAACUAUGACAAGCAAAACGCGUGCUCCGUUGAAUGGAGUUUAUCAUG [C5U A22C G83C C93U U101G C116A]: the “polymerase ribozyme fitness (log ratio)” value was -2.06.
In the case of GGAUUUUCUCGAUCUAACAAAAAAGACAAAUCUGCCACAAUGCUUGAGAGCAUCUUCGGAUGCAGAGGCGGCAGCCUUCGGUAGCGCGAUAGCGCCAACGUUCUCAACUAUGACACGCAAAACGCGUGCUCCGUUGAAUGGAGUUUAUCAUG [C5U A41U G83A], the “polymerase ribozyme fitness (log ratio)” value was -1.02.
As for GGAUUUUCUGGAUCUAACAAAAAAGACAAAUCUGUCACAAAGCUUGAGAGCAUCUUCGGAUGCAGAGGCGGCAGGCUUCGGUGGCGCGAUAGCGCCAACGUGCUCAUCUAUGACACGAAAAACGCGUGCUCCGUUGAAUGGAGUUUAUCAUG [C5U C10G C35U C75G U102G A107U C118A], the figure is no more than -4.2.
As for GGAUUUUCUCGAUCUAACAAAAAAGACAAGUCUGCCACAAAGCUUGAGAGCUUCUUCGGAUGCAGAGGCGGCAGCGUUCGGUGGCGCGAUAGCACCAACGUUCUCAACUAUGACACGUAAAACGCGUGCUCCGUUGAAUGGAGUUUAACAUG [C5U A30G A52U C76G G94A C118U U148A], the figure is no more than -4.2.
